The source of these data is publication PMC7138851, “Quantitative assessment of the determinant structural differences between redox-active and inactive glutaredoxins” (Nature Communications, 2020).

One may read the Km as the substrate concentration at which the rate is half of its maximum. As a reminder, the pKa is the pH at which an ionisable group is half protonated. One may read the kcat as the maximal rate divided by the concentration of active sites. Usually kcat/Km stands for the turnover number divided by the Michaelis constant.

One series addresses T1, HsGrx5 (Homo sapiens, UniProt Q86SX6, C122S).
T1 construct: gene GLRX5; E. coli XL1-Blue, pQE30; N-terminal MRGS(H)6 tag; C122S in all constructs
T1 sequence (Q86SX6 32-157 C122S): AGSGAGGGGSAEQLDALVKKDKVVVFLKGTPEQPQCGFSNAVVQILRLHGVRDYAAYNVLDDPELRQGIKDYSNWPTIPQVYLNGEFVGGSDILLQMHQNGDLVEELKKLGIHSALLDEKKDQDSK
Kind of series: UV/vis absorbance of purified protein. It counts as binding. The settings on record: as purified from E. coli; cluster type not determined here.

A further series concerns the target T2, ScGrx7 (Saccharomyces cerevisiae, UniProt P38068).
T2 construct: gene GRX7; E. coli XL1-Blue, pQE30; N-terminal MRGS(H)6 tag
T2 sequence (P38068 33-203): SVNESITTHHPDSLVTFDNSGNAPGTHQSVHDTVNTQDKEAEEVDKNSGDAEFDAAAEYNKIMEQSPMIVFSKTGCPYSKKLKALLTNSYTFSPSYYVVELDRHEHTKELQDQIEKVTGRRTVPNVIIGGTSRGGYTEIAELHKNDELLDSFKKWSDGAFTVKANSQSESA
Also on record: Disulfide oxidoreductase assay, steady-state kinetics, coupled NADPH consumption at 340 nm, pH 8.0, 25 °C. The settings on record: apparent Km at highest fixed GSH concentration; substrate; read-out: Km app(HEDS). Here is the method:
Steady-state kinetics of wild-type and mutant ScGrx7 and HsGrx5^C122S in the GSSCys and [compound left out] assays were determined spectrophotometrically by monitoring the consumption of NADPH at 340 nm and 25 °C using a thermostated Jasco V-650 UV/vis spectrophotometer[11],[19],[25]. Fresh stock solutions of NADPH, GSH, GR, and GSSCys or [compound left out] were prepared in assay buffer containing 0.1 M Tris/HCl, 1 mM EDTA, pH 8.0 before each experiment. Both assays were performed with 0.1 mM NADPH and 1 U/ml ScGR. […] NADPH, GSH, and GR were mixed in assay buffer before Grx was added and a baseline was recorded for 30 s. […] The absorbance of a reference cuvette containing all components but no Grx was measured in parallel and subtracted from the obtained Grx activity. […] NADPH, GSH, and [compound left out] were preincubated in assay buffer for 2 min before GR was added and a baseline was recorded for 30 s. […] Kinetic data were analyzed in Excel and SigmaPlot 13 by nonlinear and linear regression according to Michaelis–Menten, Lineweaver–Burk, Eadie–Hofstee, and Hanes theory[11],[19],[25].

In series [1] the target is Cys108 (UniProt position 108, FSATGCPYSKK). Description: chemical modification. To be noted: 23 °C (alkylation step), 25 °C (HEDS activity read-out), 100 mM KCl in a constant-ionic-strength three-buffer system, the ionic strength value is not stated, 50 mM potassium acetate, 50 mM MES, 100 mM Tris, Free enzyme, freshly reduced with a 20-fold molar excess of NaBH4, 6 µM protein.

For series [2], the target named is Cys108 (UniProt position 108, FSKTGCPYSKK). Description: chemical modification. The settings on record: 23 °C, 100 mM KCl in a constant-ionic-strength three-buffer system (value not stated), 50 mM potassium acetate, 50 mM MES, 100 mM Tris, Freshly reduced (NaBH4) free enzyme, no glutathione bound.
Series [3] deals with Cys108 (UniProt position 108, FSETGCPYSKK). Kind of series: chemical modification. To be noted: 23 °C, 100 mM KCl in a constant-ionic-strength three-buffer system (value not stated), 50 mM potassium acetate, 50 mM MES, 100 mM Tris, Freshly reduced (NaBH4) free enzyme, no glutathione bound.
Substrate in series [4]: N[C@@H](CCC(=O)N[C@@H](CS)C(=O)NCC(=O)O)C(=O)O
Kind of series: purified protein, by the assay type. The arrangement: GSSCys oxidoreductase assay, GR-coupled NADPH consumption at 340 nm, apparent Km from Hanes plots. The settings on record: pH 8.0; 25.0 °C. Here is the method:
(§1) Steady-state kinetics of wild-type and mutant ScGrx7 and HsGrx5^C122S in the GSSCys and [compound left out] assays were determined spectrophotometrically by monitoring the consumption of NADPH at 340 nm and 25 °C using a thermostated Jasco V-650 UV/vis spectrophotometer[11],[19],[25]. Fresh stock solutions of NADPH, GSH, GR, and GSSCys or [compound left out] were prepared in assay buffer containing 0.1 M Tris/HCl, 1 mM EDTA, pH 8.0 before each experiment. Both assays were performed with 0.1 mM NADPH and 1 U/ml ScGR. The following final protein concentrations were used for Y110F/H/A (5–150 nM), D144A/K (10 nM), E147A/K (10 nM), R153A/E (25–50 nM), ScGrx7^WP (20 nM), ScGrx7^loop (up to 1.4 µM), ScGrx7^WP+loop (up 2.6 µM), HsGrx5^C122S (up to 15 µM), HsGrx5^RR (up to 12 µM), HsGrx5^loop (up to 1.6 µM), and HsGrx5^RR+loop (up to 4.0 µM). For the GSSCys assays, GSH was varied between 50 µM and 1.5 mM at fixed GSSCys concentrations (25, 50, 100, and 150 µM). NADPH, GSH, and GR were mixed in assay buffer before Grx was added and a baseline was recorded for 30 s. All GSSCys assays were started by the addition of GSSCys. The absorbance of a reference cuvette containing all components but no Grx was measured in parallel and subtracted from the obtained Grx activity. For the [compound left out] assays, GSH was varied between 100 µM and 2.0 mM at fixed concentrations of [compound left out] (0.18, 0.37, 0.55, and 0.74 mM). NADPH, GSH, and [compound left out] were preincubated in assay buffer for 2 min before GR was added and a baseline was recorded for 30 s. All [compound left out] assays were started by the addition of enzyme. Kinetic data were analyzed in Excel and SigmaPlot 13 by nonlinear and linear regression according to Michaelis–Menten, Lineweaver–Burk, Eadie–Hofstee, and Hanes theory[11],[19],[25]. 29 Supplementary Figure 15 Supplementary Figure 15 | GSSCys assay steady-state kinetics of HsGrx5loop and HsGrx5RR+loop . […] The activities of HsGrx5 and HsGrx5RR were similar to the NADPH consumption of negative controls without enzyme and could not be analyzed.

Substrate in series [5]: N[C@@H](CCC(=O)N[C@@H](CSSC[C@H](N)C(=O)O)C(=O)NCC(=O)O)C(=O)O
Kind of series: purified protein, by the assay type. The arrangement: GSSCys oxidoreductase assay, GR-coupled NADPH consumption at 340 nm, apparent Km from Hanes plots. The settings on record: pH 8.0; 25.0 °C. Here is the method:
as §1

“And” between values parts separate entries of the source, which are not always exact repeats. Equal entries are not always repeated.

`[S]1[Fe][S][Fe]1` [iron–sulfur cluster]: the “UV/vis absorbance of purified protein” value on HsGrx5 was “Freshly purified recombinant wild-type HsGrx5 contained an iron–sulfur cluster”.

For `OCCSSCCO` [HEDS], at ScGrx7, the Km worked out at 820 ± 190 µM.

On to “Glutaredoxin 7 (ScGrx7) K105A (Saccharomyces cerevisiae; K105A)”, for which the pKa with Cys108 [1] was 4.4 ± 0.1.

As for “Glutaredoxin 7 (ScGrx7), wild type (Saccharomyces cerevisiae)”, the pKa with Cys108 [2] was 4.3 ± 0.1 and 4.48.

The molecule “Glutaredoxin 7 (ScGrx7) K105E (Saccharomyces cerevisiae; K105E)” came in with a pKa with Cys108 [3] of 5.0 ± 0.1.

B1: HsGrx5 (Homo sapiens; C122S/DEL60-64/P65T/Q66G) (protein)
chain: AGSGAGGGGSAEQLDALVKKDKVVVFLKTGCGFSNAVVQILRLHGVRDYAAYNVLDDPELRQGIKDYSNWPTIPQVYLNGEFVGGSDILLQMHQNGDLVEELKKLGIHSALLDEKKDQDSK
notes: E. coli XL1-Blue, pQE30; N-terminal MRGS(H)6 tag; C122S in all constructs
Regarding B1, the kcat in series [4] is 0.18 s⁻¹ and 0.27 s⁻¹. The kcat/Km is 3900 M⁻¹ s⁻¹ and 4800 M⁻¹ s⁻¹ in series [4]; 1500 M⁻¹ s⁻¹ and 1600 M⁻¹ s⁻¹ in series [5].
